# From patent publication US10053497B2, “Therapeutic epitopes and uses thereof” (OXFORD UNIVERSITY INNOVATION LIMITED, priority 2002, dated 2018)
# Target: T1, tTG (UniProt P08587)
# T1 construct: purchased Sigma T-5398
# T1 sequence (P08587 1-690): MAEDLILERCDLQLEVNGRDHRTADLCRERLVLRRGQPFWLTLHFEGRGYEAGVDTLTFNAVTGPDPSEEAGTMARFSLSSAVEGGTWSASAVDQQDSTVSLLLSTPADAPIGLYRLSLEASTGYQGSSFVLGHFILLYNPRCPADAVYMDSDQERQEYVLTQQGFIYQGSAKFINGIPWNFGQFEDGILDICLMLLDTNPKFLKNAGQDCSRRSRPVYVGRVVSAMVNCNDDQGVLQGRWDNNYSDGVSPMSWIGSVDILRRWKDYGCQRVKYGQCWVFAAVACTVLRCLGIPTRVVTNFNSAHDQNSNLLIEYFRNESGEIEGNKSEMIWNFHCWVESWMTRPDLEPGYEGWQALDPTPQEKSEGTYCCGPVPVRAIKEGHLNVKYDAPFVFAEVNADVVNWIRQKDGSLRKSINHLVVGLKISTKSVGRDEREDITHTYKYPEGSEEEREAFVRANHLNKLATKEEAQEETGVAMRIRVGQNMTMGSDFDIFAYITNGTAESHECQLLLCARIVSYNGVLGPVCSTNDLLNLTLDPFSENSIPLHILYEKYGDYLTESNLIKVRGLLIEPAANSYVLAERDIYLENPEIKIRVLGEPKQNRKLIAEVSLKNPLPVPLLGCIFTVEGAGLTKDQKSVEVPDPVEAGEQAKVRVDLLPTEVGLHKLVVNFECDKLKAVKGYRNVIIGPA
# Assay: Deamidation of A-gliadin 56-75 by tTG (HPLC, amino acid sequencing)
# Assay type: biochemical, guinea pig
# Conditions: tTG 50 μg/ml, 37° C., 2 hours
# Method: A-gliadin 56-75 […] (SEQ ID NO:5) (0.1 μM) was incubated with tTG (50 μg/ml) at 37° C. for 2 hours. A single product was identified and purified by reverse phase HPLC. Amino acid analysis allowed % deamidation (Q→E) of each Gln residue in A-gliadin 56-75 (SEQ ID NO:5) attributable to tTG to be calculated (vertical axis).
# Coeliac disease subjects following a gluten free diet, consumed 4 slices of gluten-containing bread (50 g/slice, Sainsbury's “standard white sandwich bread”) daily for 3 or 10 days. EMA was assessed the week before and up to two months after commencing the bread challenge. […] Peptides were assessed in duplicate wells, and Mycobacterium tuberculosis purified protein derivative (PPD RT49) (Serum Institute; Copenhagen, Denmark) (20 μg/ml) was included as a positive control in all assays. […] Digestion of gliadin was verified by SDS-PAGE and protein concentration assessed. α-Chymotrypsin-digested gliadin (640 μg/ml) and synthetic gliadin peptides (15-mers: 160 μg/ml, other peptides: 0.1 mM) were individually treated with tTG (Sigma; T-5398) ([…]) in PBS+CaCl2 1 mM for 2 h at 37° C. […] Deamidation of glutamyl residues was defined as the amount (pmol) of glutamate recovered expressed as a percent of the combined amount of glutamine and glutamate recovered in cycles 2, 4, 8, 10, 15 and 17 of the amino acid sequencing. […]
sequence,measurement,value
LQLQPFPQPQLPYPQPQSFP [A-gliadin 56-75],Glutamine residue deamidated by tTG,Q65 (SEQ ID NO:5) was preferentially deamidated by tTG
